One series relates to infected muscle tissue. Description: in vivo. Particulars: rabbit; for Blood (% ID/g) / Control Muscle (% ID/g): iv. Also on record: species or system New Zealand white rabbits. The procedure: (§1) After 24 h, the animals were sedated by i.m. injection of ketamine and xylazine, and then injected i.v. with Tc-99m labeled peptide (≤150 μg, 2-10 mCi). The animals were positioned supine in the field of view of a gamma camera (LEAP colimator/photopeaked for Tc-99m) and imaged over the first hour post-injection, and then at approximately 1 h intervals over the next three hours post injection. Animals were allowed to recover between image acquisitions and re-anesthetized as needed.
(§2) Upon completion of the final imaging, each animal was sacrificed by overdose of phenobarbital i.v. and dissected to obtain samples of blood and of infected and control muscle tissue. The tissue samples were weighed, and along with a standard amount of the injected dose, were counted using a gamma counter, and the percent injected dose (per gram of tissue) remaining in the tissues was determined. Ratios of percent of injected dose per gram of infected versus non-infected muscle tissue, and of infected muscle tissue versus blood, were calculated for each peptide. Scintiphotos of whole body and leg images of a rabbit injected with a Tc-99m labeled reagent of the invention, having the formula

A further series in a line: in vivo. Also on record: species or system New Zealand white rabbits. Particulars: rabbit, iv. The procedure:
as §1, §2

Where [1] appears, read: New Zealand white, total radioactivity, Blood (% ID/g).
[2] abbreviates: New Zealand white, total radioactivity, Control Muscle (% ID/g).

The record followed here is US5989519A, “Technetium-99m labeled peptides for imaging inflammation” (Diatide, Inc., priority 1994, dated 1999).

Numbered stars: 1 amine (or outer) side, 2 acyl side, 3 side chain; on linkers, the order of the positions; unused ones are H or OH. Square brackets hold non-standard residues; d marks the D form. Ends that are not written are not given here. Peptide text beside a SMILES is read from it. * marks the point of attachment. BAT = N6,N9-bis(2-methyl-2-mercaptopropyl)-6,9-diazanonanoic acid (chelator), CC(C)(S)CNCCN(CCCCC(=O)*)CC(C)(C)S; C(Acm) = CC(=O)NCSC[C@H](N[*:1])C(=O)[*:2]; X1 = CC(C)(S)CNCCN(CCCCC(=O)*)CC(C)(C)S; pGlu = O=C1CC[C@@H](C(=O)O)N1; Picolinoyl = O=C(c1ccccn1)*; Acm = CC(=O)NC*; For = O=C*

Broadly, the tissue uptake is the percentage of the injected dose found per gram of tissue. `CSCC[C@H](NC=O)C(=O)N[C@@H](CC(C)C)C(=O)N[C@@H](Cc1ccccc1)C(=O)N[C@@H](CCCCNC(=O)CCCCN(CCNCC(C)(C)S)CC(C)(C)S)C(N)=O` (99mTc complex, metal not drawn) [formyl.MLFK.[BAT]amide, formyl.MLFK.[BAT].amide] (For-MLFK(X1)-NH2): in the series on infected muscle tissue, the “Ratio of Infected/Blood” value amounted to 3.58 and the “Ratio of Infected/Control” value was 7.68. In the series “in vivo” (Blood (% ID/g)), this compound returned a tissue uptake of 0.006 %ID/g. The tissue uptake in “in vivo” (Control Muscle (% ID/g)) turned out to be 0.0028 %ID/g.
“CAcm GCAcm (VGVAPG)3 amide (C(Acm)GC(Acm)VGVAPGVGVAPGVGVAPG-NH2; also: Tc-99m label)”: in the series with infected muscle tissue, the “Ratio of Infected/Blood” value is given as 1.69, the “Ratio of Infected/Control” value is listed as 3.94, the “Blood (% ID/g)” value worked out at 0.011 % ID/g and the “Control Muscle (% ID/g)” value amounted to 0.0017 % ID/g.
Take `CC(C)C[C@H](NC(=O)C1(NC=O)CCSCC1)C(=O)N[C@@H](Cc1ccccc1)C(=O)NCCCCCN(CCNCC(C)(C)S)CC(C)(C)S` [formyl.Thp.LF.[BAM]]: in the series with infected muscle tissue, the “Ratio of Infected/Blood” value amounted to 0.83 and the “Ratio of Infected/Control” value is listed as 4.80. In addition, the tissue uptake in “in vivo” (setting [1]) is 0.006 %ID/g. Moreover, the tissue uptake in the series “in vivo” (setting [2]) was found to be 0.001 %ID/g.
Consider “[BAT].GGPLYKKIIKKLLES ({BAT}-GGPLYKKIIKKLLES; also: Tc-99m label)”, for which, in the series with infected muscle tissue, the “Ratio of Infected/Blood” value turned out to be 0.50, the “Ratio of Infected/Control” value amounted to 7.00, the “Blood (% ID/g)” value was 0.004 % ID/g and the “Control Muscle (% ID/g)” value is recorded as 0.0003 % ID/g.
Take `CCCC(CCC)(NC(=O)[C@H](CCSC)NC=O)C(=O)N[C@@H](Cc1ccccc1)C(=O)NCCCCCN(CCNCC(C)(C)S)CC(C)(C)S` [formyl.M.Dpg.F.[BAM], formyl.M.DpgF.[BAM]]: in the series with infected muscle tissue, the “Ratio of Infected/Blood” value is 3.53 and the “Ratio of Infected/Control” value is on record as 15.14. Also, the tissue uptake in “in vivo” (setting [1]) came to 0.003 %ID/g. Besides, in “in vivo” (setting [2]), the tissue uptake is 0.0007 %ID/g.
Regarding “acetyl.KKKKKCAcm GCAcm GGPLYKKIIKKLLES (Ac-KKKKKC(Acm)GC(Acm)GGPLYKKIIKKLLES; also: Tc-99m label) [Ac.KKKKKCAcm GCAcm GGPLYKKIIKKLLES]”, in the series with infected muscle tissue, the “Ratio of Infected/Blood” value was 0.93, the “Ratio of Infected/Control” value was 5.60, the “Blood (% ID/g)” value was 0.006 % ID/g and the “Control Muscle (% ID/g)” value was determined as 0.0019 % ID/g.
Take “[BAT].(VPGVG)4 amide ({BAT}-VPGVGVPGVGVPGVGVPGVG-NH2; also: Tc-99m label)”: in the series with infected muscle tissue, the “Ratio of Infected/Blood” value is 1.68, the “Ratio of Infected/Control” value amounted to 5.33, the “Blood (% ID/g)” value is on record as 0.002 % ID/g and the “Control Muscle (% ID/g)” value is 0.0006 % ID/g.
The like results for “Pic.GC(VGVAPG)3 amide (Picolinoyl-GCVGVAPGVGVAPGVGVAPG-NH2; numbers in words are those of the source; also: Tc-99m label) [PicGC(VGVAPG)3 amide]” were, in that order, 0.69, 5.58, 0.015 % ID/g and 0.0019 % ID/g.
Consider “CAcm GCAcm TKPR (C(Acm)GC(Acm)TKPR; also: Tc-99m label)”, for which, in the series on infected muscle tissue, the “Ratio of Infected/Blood” value is on record as 2.07, the “Ratio of Infected/Control” value is reported as 2.40, the “Blood (% ID/g)” value amounted to 0.003 % ID/g and the “Control Muscle (% ID/g)” value turned out to be 0.0025 % ID/g.
As to “pGlu.GVNDNEEGFFSARCAcm GCAcm amide ([pGlu]GVNDNEEGFFSARC(Acm)GC(Acm)-NH2; also: Tc-99m label)”, in the series with infected muscle tissue, the “Ratio of Infected/Blood” value was found to be 0.68, the “Ratio of Infected/Control” value was 5.68, the “Blood (% ID/g)” value is 0.024 % ID/g and the “Control Muscle (% ID/g)” value worked out at 0.0029 % ID/g.
For “(acetyl.CCAcm GCAcm PLYKKIIKKLLES)2.BSME ({Ac-Cys-C(Acm)-Gly-C(Acm)}-PLYKKIIKKLLES; also: dimer via BSME, Tc-99m label) [(Ac.CCAcm GCAcm PLYKKIIKKLLES)2 BSME]”, in that order: 0.84, 7.45, 0.010 % ID/g and 0.0011 % ID/g.
The like results for “acetyl.CGGGPLYKKIIKKLLES (Ac-CGGGPLYKKIIKKLLES) [Ac.CGGGPLYKKIIKKLLES]” were, in that order, 0.74, 4.70, 0.032 % ID/g and 0.0050 % ID/g.
In the case of “acetyl.CAcm GCAcm GGG(VPGVG)4 amide (Ac-C(Acm)GC(Acm)GGGVPGVGVPGVGVPGVGVPGVG-NH2; also: Tc-99m label) [Ac.CAcm GCAcm GGG(VPGVG)4 amide]”, in the series on infected muscle tissue, the “Ratio of Infected/Blood” value turned out to be 0.63, the “Ratio of Infected/Control” value worked out at 3.97, the “Blood (% ID/g)” value is given as 0.049 % ID/g and the “Control Muscle (% ID/g)” value was 0.0077 % ID/g.
